# Laboratory results from patent US20210246166A1 (Bayer, published 2021).
# Numbered stars: 1 amine (or outer) side, 2 acyl side, 3 side chain; on linkers, the order of the positions; unused ones are H or OH. Bridge positions count the residues as written; N and C are the ends. Square brackets hold non-standard residues; d marks the D form. Ends that are not written are not given here. X13 = (2S)‑2‑amino‑3‑(1-methylcyclopropyl)propanoic acid, CC1(C[C@H](N[*:1])C(=O)[*:2])CC1; Oic = O=C(O)[C@@H]1C[C@@H]2CCCC[C@@H]2N1; tBuAla = CC(C)(C)C[C@H](N)C(=O)O; Chg = N[C@H](C(=O)O)C1CCCCC1; Pen = CC(C)(S)[C@H](N)C(=O)O; 3Amb = NCc1cccc(C(=O)O)c1; NMeC = CN[C@@H](CS)C(=O)O; Nva = CCC[C@H](N)C(=O)O; Ac4c = NC1(C(=O)O)CCC1; Dap = NC[C@H](N)C(=O)O; PEG2 = NCCOCCOCCC(=O)O; Sar = CNCC(=O)O
# T1: Recombinant human MASP1 enzyme (fragment corresponding to amino acids 297-699, C-terminal His Tag) (human, UniProt P48740 297-699)
# T1 sequence: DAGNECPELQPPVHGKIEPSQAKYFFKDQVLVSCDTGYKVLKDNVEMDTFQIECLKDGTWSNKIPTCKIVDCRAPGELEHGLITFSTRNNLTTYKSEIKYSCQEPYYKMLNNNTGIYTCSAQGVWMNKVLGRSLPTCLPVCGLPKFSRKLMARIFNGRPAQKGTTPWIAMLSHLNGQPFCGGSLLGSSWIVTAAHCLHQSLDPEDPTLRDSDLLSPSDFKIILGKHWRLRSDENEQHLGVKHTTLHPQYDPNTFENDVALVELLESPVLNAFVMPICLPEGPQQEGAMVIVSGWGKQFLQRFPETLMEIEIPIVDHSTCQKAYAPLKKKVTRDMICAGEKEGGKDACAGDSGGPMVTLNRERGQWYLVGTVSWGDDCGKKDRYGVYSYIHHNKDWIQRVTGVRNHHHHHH
# B1: aIC+SRSLP-(Oic)-I-(Pen)+IPQ-NH2 (peptide)
# peptide: [dA]ICSRSLP[Oic]I[Pen]IPQ-NH2
# modifications: disulfide 3-11; N-terminus assumed
# SMILES: CC[C@H](C)[C@H](NC(=O)[C@@H](C)N)C(=O)N[C@H]1CSSC(C)(C)[C@@H](C(=O)N[C@H](C(=O)N2CCC[C@H]2C(=O)N[C@@H](CCC(N)=O)C(N)=O)[C@@H](C)CC)NC(=O)[C@H]([C@@H](C)CC)NC(=O)[C@@H]2C[C@@H]3CCCC[C@@H]3N2C(=O)[C@@H]2CCCN2C(=O)[C@H](CC(C)C)NC(=O)[C@H](CO)NC(=O)[C@H](CCCNC(=N)N)NC(=O)[C@H](CO)NC1=O
# B2: AIC+SRSLPP-(Chg)-(Pen)+IPD-NH2 (peptide)
# peptide: AICSRSLPP[Chg][Pen]IPD-NH2
# modifications: disulfide 3-11; N-terminus assumed
# SMILES: CC[C@H](C)[C@H](NC(=O)[C@H](C)N)C(=O)N[C@H]1CSSC(C)(C)[C@@H](C(=O)N[C@H](C(=O)N2CCC[C@H]2C(=O)N[C@@H](CC(=O)O)C(N)=O)[C@@H](C)CC)NC(=O)[C@H](C2CCCCC2)NC(=O)[C@@H]2CCCN2C(=O)[C@@H]2CCCN2C(=O)[C@H](CC(C)C)NC(=O)[C@H](CO)NC(=O)[C@H](CCCNC(=N)N)NC(=O)[C@H](CO)NC1=O
# B3: A-(Nva)-C+SRS-((tBu)A)-PPI-(Pen)+IPD-NH2 (peptide)
# peptide: A[Nva]CSRS[tBuAla]PPI[Pen]IPD-NH2
# modifications: disulfide 3-11; N-terminus assumed
# SMILES: CCC[C@H](NC(=O)[C@H](C)N)C(=O)N[C@H]1CSSC(C)(C)[C@@H](C(=O)N[C@H](C(=O)N2CCC[C@H]2C(=O)N[C@@H](CC(=O)O)C(N)=O)[C@@H](C)CC)NC(=O)[C@H]([C@@H](C)CC)NC(=O)[C@@H]2CCCN2C(=O)[C@@H]2CCCN2C(=O)[C@H](CC(C)(C)C)NC(=O)[C@H](CO)NC(=O)[C@H](CCCNC(=N)N)NC(=O)[C@H](CO)NC1=O
# B4: AIC+SRS-((tBu)A)-P-(Oic)-I-((N-Me)C)+I-NH2 (peptide)
# peptide: AICSRS[tBuAla]P[Oic]I[NMeC]I-NH2
# modifications: disulfide 3-11; N-terminus assumed
# SMILES: CC[C@H](C)[C@H](NC(=O)[C@@H]1CSSC[C@H](NC(=O)[C@@H](NC(=O)[C@H](C)N)[C@@H](C)CC)C(=O)N[C@@H](CO)C(=O)N[C@@H](CCCNC(=N)N)C(=O)N[C@@H](CO)C(=O)N[C@@H](CC(C)(C)C)C(=O)N2CCC[C@H]2C(=O)N2[C@@H](C[C@@H]3CCCC[C@@H]32)C(=O)N[C@@H]([C@@H](C)CC)C(=O)N1C)C(N)=O
# B5: (3-(Aminomethyl)benzoic acid)-IC+SRS-((tBu)A)-PPI-(Pen)+IP-NH2 (peptide)
# peptide: [3Amb]ICSRS[tBuAla]PPI[Pen]IP-NH2
# modifications: disulfide 3-11; N-terminus assumed
# SMILES: CC[C@H](C)[C@H](NC(=O)c1cccc(CN)c1)C(=O)N[C@H]1CSSC(C)(C)[C@@H](C(=O)N[C@H](C(=O)N2CCC[C@H]2C(N)=O)[C@@H](C)CC)NC(=O)[C@H]([C@@H](C)CC)NC(=O)[C@@H]2CCCN2C(=O)[C@@H]2CCCN2C(=O)[C@H](CC(C)(C)C)NC(=O)[C@H](CO)NC(=O)[C@H](CCCNC(=N)N)NC(=O)[C@H](CO)NC1=O
# B6: (ACBA)-IC+SRS-((tBu)A)-PPI-(Pen)+I-NH2 (peptide)
# peptide: [Ac4c]ICSRS[tBuAla]PPI[Pen]I-NH2
# modifications: disulfide 3-11; N-terminus assumed
# SMILES: CC[C@H](C)[C@H](NC(=O)[C@H]1NC(=O)[C@H]([C@@H](C)CC)NC(=O)[C@@H]2CCCN2C(=O)[C@@H]2CCCN2C(=O)[C@H](CC(C)(C)C)NC(=O)[C@H](CO)NC(=O)[C@H](CCCNC(=N)N)NC(=O)[C@H](CO)NC(=O)[C@@H](NC(=O)[C@@H](NC(=O)C2(N)CCC2)[C@@H](C)CC)CSSC1(C)C)C(N)=O
# B7: ((N-Me)G)-IC+SRSLP-(Oic)-I-(Pen)+IPE-OH (peptide)
# peptide: [Sar]ICSRSLP[Oic]I[Pen]IPE-OH
# modifications: disulfide 3-11; N-terminus assumed
# SMILES: CC[C@H](C)[C@H](NC(=O)CNC)C(=O)N[C@H]1CSSC(C)(C)[C@@H](C(=O)N[C@H](C(=O)N2CCC[C@H]2C(=O)N[C@@H](CCC(=O)O)C(=O)O)[C@@H](C)CC)NC(=O)[C@H]([C@@H](C)CC)NC(=O)[C@@H]2C[C@@H]3CCCC[C@@H]3N2C(=O)[C@@H]2CCCN2C(=O)[C@H](CC(C)C)NC(=O)[C@H](CO)NC(=O)[C@H](CCCNC(=N)N)NC(=O)[C@H](CO)NC1=O
# B8: ((N-Me)G)-IC+SRSLP-(Oic)-I-(Pen)+IPQ-OH (peptide)
# peptide: [Sar]ICSRSLP[Oic]I[Pen]IPQ-OH
# modifications: disulfide 3-11; N-terminus assumed
# SMILES: CC[C@H](C)[C@H](NC(=O)CNC)C(=O)N[C@H]1CSSC(C)(C)[C@@H](C(=O)N[C@H](C(=O)N2CCC[C@H]2C(=O)N[C@@H](CCC(N)=O)C(=O)O)[C@@H](C)CC)NC(=O)[C@H]([C@@H](C)CC)NC(=O)[C@@H]2C[C@@H]3CCCC[C@@H]3N2C(=O)[C@@H]2CCCN2C(=O)[C@H](CC(C)C)NC(=O)[C@H](CO)NC(=O)[C@H](CCCNC(=N)N)NC(=O)[C@H](CO)NC1=O
# B9: ((N-Me)G)-IC+SRSLP-(Oic)-I-(Pen)+IPQ-NH2 (peptide)
# peptide: [Sar]ICSRSLP[Oic]I[Pen]IPQ-NH2
# modifications: disulfide 3-11; N-terminus assumed
# SMILES: CC[C@H](C)[C@H](NC(=O)CNC)C(=O)N[C@H]1CSSC(C)(C)[C@@H](C(=O)N[C@H](C(=O)N2CCC[C@H]2C(=O)N[C@@H](CCC(N)=O)C(N)=O)[C@@H](C)CC)NC(=O)[C@H]([C@@H](C)CC)NC(=O)[C@@H]2C[C@@H]3CCCC[C@@H]3N2C(=O)[C@@H]2CCCN2C(=O)[C@H](CC(C)C)NC(=O)[C@H](CO)NC(=O)[C@H](CCCNC(=N)N)NC(=O)[C@H](CO)NC1=O
# B10: ((N-Me)G)-IC+SRS-((tBu)A)-PPI-(Pen)+IP-(PEG1(10 atoms))-NH2 (peptide)
# peptide: [Sar]ICSRS[tBuAla]PPI[Pen]IP[PEG2]-NH2
# modifications: disulfide 3-11; N-terminus assumed
# SMILES: CC[C@H](C)[C@H](NC(=O)CNC)C(=O)N[C@H]1CSSC(C)(C)[C@@H](C(=O)N[C@H](C(=O)N2CCC[C@H]2C(=O)NCCOCCOCCC(N)=O)[C@@H](C)CC)NC(=O)[C@H]([C@@H](C)CC)NC(=O)[C@@H]2CCCN2C(=O)[C@@H]2CCCN2C(=O)[C@H](CC(C)(C)C)NC(=O)[C@H](CO)NC(=O)[C@H](CCCNC(=N)N)NC(=O)[C@H](CO)NC1=O
# B11: ((N-Me)G)-IC+SRS-((2S)-2-amino-3-(1-methylcyclopropyl)propanoic acid)-PPI-(Pen)+IP-NH2 (peptide)
# peptide: [Sar]ICSRS[X13]PPI[Pen]IP-NH2
# modifications: disulfide 3-11; N-terminus assumed
# SMILES: CC[C@H](C)[C@H](NC(=O)CNC)C(=O)N[C@H]1CSSC(C)(C)[C@@H](C(=O)N[C@H](C(=O)N2CCC[C@H]2C(N)=O)[C@@H](C)CC)NC(=O)[C@H]([C@@H](C)CC)NC(=O)[C@@H]2CCCN2C(=O)[C@@H]2CCCN2C(=O)[C@H](CC2(C)CC2)NC(=O)[C@H](CO)NC(=O)[C@H](CCCNC(=N)N)NC(=O)[C@H](CO)NC1=O
# B12: (Dap)-IC+SRS-((tBu)A)-PPI-(Pen)+I-NH2 (peptide)
# peptide: [Dap]ICSRS[tBuAla]PPI[Pen]I-NH2
# modifications: disulfide 3-11; N-terminus assumed
# SMILES: CC[C@H](C)[C@H](NC(=O)[C@H]1NC(=O)[C@H]([C@@H](C)CC)NC(=O)[C@@H]2CCCN2C(=O)[C@@H]2CCCN2C(=O)[C@H](CC(C)(C)C)NC(=O)[C@H](CO)NC(=O)[C@H](CCCNC(=N)N)NC(=O)[C@H](CO)NC(=O)[C@@H](NC(=O)[C@@H](NC(=O)[C@@H](N)CN)[C@@H](C)CC)CSSC1(C)C)C(N)=O
# B13: aIC+SRSLP-(Oic)-I-(Pen)+IPE-OH (peptide)
# peptide: [dA]ICSRSLP[Oic]I[Pen]IPE-OH
# modifications: disulfide 3-11; N-terminus assumed
# SMILES: CC[C@H](C)[C@H](NC(=O)[C@@H](C)N)C(=O)N[C@H]1CSSC(C)(C)[C@@H](C(=O)N[C@H](C(=O)N2CCC[C@H]2C(=O)N[C@@H](CCC(=O)O)C(=O)O)[C@@H](C)CC)NC(=O)[C@H]([C@@H](C)CC)NC(=O)[C@@H]2C[C@@H]3CCCC[C@@H]3N2C(=O)[C@@H]2CCCN2C(=O)[C@H](CC(C)C)NC(=O)[C@H](CO)NC(=O)[C@H](CCCNC(=N)N)NC(=O)[C@H](CO)NC1=O
# B14: aIC+SRSLP-(Oic)-I-(Pen)+IPE-NH2 (peptide)
# peptide: [dA]ICSRSLP[Oic]I[Pen]IPE-NH2
# modifications: disulfide 3-11; N-terminus assumed
# SMILES: CC[C@H](C)[C@H](NC(=O)[C@@H](C)N)C(=O)N[C@H]1CSSC(C)(C)[C@@H](C(=O)N[C@H](C(=O)N2CCC[C@H]2C(=O)N[C@@H](CCC(=O)O)C(N)=O)[C@@H](C)CC)NC(=O)[C@H]([C@@H](C)CC)NC(=O)[C@@H]2C[C@@H]3CCCC[C@@H]3N2C(=O)[C@@H]2CCCN2C(=O)[C@H](CC(C)C)NC(=O)[C@H](CO)NC(=O)[C@H](CCCNC(=N)N)NC(=O)[C@H](CO)NC1=O
# Target: Recombinant human MASP2 enzyme (fragment corresponding to amino acids 297-686, C-terminal His Tag) (human, UniProt O00187 297-686)
# Sequence (O00187 other isoform, or with tags, fused parts or gaps limits assumed): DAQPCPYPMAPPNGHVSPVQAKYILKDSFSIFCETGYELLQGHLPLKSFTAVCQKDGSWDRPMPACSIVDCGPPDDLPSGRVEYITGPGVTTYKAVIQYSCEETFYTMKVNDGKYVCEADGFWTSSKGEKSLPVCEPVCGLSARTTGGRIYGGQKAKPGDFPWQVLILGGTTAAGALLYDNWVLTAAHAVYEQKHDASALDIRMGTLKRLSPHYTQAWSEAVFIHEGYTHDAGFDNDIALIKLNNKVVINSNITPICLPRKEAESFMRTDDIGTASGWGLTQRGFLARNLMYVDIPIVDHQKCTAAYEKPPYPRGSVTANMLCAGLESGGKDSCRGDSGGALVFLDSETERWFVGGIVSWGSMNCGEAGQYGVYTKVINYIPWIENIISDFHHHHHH
# Test: cell-based or functional assay
row,Binder,human MASP2 IC50 [nM]
1,B1,130
2,B2,44
3,B3,19
4,B4,250
5,B5,16
6,B6,15
7,B7,180
8,B8,170
9,B9,190
10,B10,74
11,B11,17
12,B12,81
13,[Sar]ICSRSLP[Oic]I[Pen]I[5‑Azaspiro(2.4)heptane‑1‑carboxylic acid]-OH (disulfide 3-11) [((N-Me)G)-IC+SRSLP-(Oic)-I-(Pen)+I-((5-Azaspiro[2.4]heptane-1-carboxylic acid)-OH],100
14,B13,100
15,B14,150

# Target: T1, Recombinant human MASP1 enzyme …
# Test: cell-based or functional assay
row,Binder,human MASP1 IC50 [nM]
1,B1,5.3
2,B2,5.7
3,B3,5.2
4,B4,5.2
5,B5,5.4
6,B6,5.7
7,B7,5.1
8,B8,5.4
9,B9,5.2
10,B10,5.7
11,B11,5.1
12,B12,5.1
13,[Sar]ICSRSLP[Oic]I[Pen]I[5‑Azaspiro(2.4)heptane‑1‑carboxylic acid]-OH (disulfide 3-11) [((N-Me)G)-IC+SRSLP-(Oic)-I-(Pen)+I-((5-Azaspiro[2.4]heptane-1-carboxylic acid)-OH],5.1
14,B13,5.3
15,B14,5
